Experimental data: the supplement of paper PMC12042874
± gives the uncertainty stated by the source.

Experiment: amyloid nucleation score (Sup35N fusion, yeast selection) (log enrichment); library NNK2; higher = more nucleation; inactive = no reads after selection
Summary of the method: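 Nucleation score: DiMSum log enrichment of output over input reads, centred on the mode score of non-aggregating sequences. Only sequences with at least 100 input reads were kept. Reads came from Illumina sequencing of plasmid inserts before and after 7 days of growth at 30°C without adenine and uracil, in psi-negative yeast expressing Sup35N fused to peptides of 20 random codons after 24 hours of induction with 100 μM copper sulfate.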

Row | Substance | amyloid nucleation score
1 | VDMGGDPWMVNRCELSLRLW | 0.881 ± 0.43
2 | VDRKWRKT | -0.373 ± 1
3 | VDVFGVCRRSVYVA | 0.988 ± 0.4
4 | VDWCWGLWT | 0.945 ± 0.24
5 | VDWFLYFCSPTFCHVL | 8.741 ± 0.063
6 | VEARKLYQCMCVVRC | -0.143 ± 0.28
7 | VEFILKVGYAFTATCPCGFW | -0.711 ± 0.79
8 | VEGTPMFVWINWGVGKVGQS | 3.42 ± 0.051
9 | VEHARGDRCCRQDYGVQQYK | 2.68 ± 0.23
10 | VEHEFVQILT | -0.733 ± 0.36
11 | VELQP | 1.18 ± 0.29
12 | VFFVHSYND | inactive
13 | VFGSEVSNIRRESWRSLIGQ | 0.756 ± 0.18
14 | VFGWSVRFNYYIFMSMANDV | 3.62 ± 0.13
15 | VFIVMYSKFLKHVYGTTLTN | inactive
16 | VFIVYLWWTLRSWHIRVLIS | -0.52 ± 1.1
17 | VFLTGCIPR | 0.052 ± 0.37
18 | VFMGNSLHFRRSTVAHWRSN | 1.39 ± 0.41
19 | VFPQLCDVSLE | -0.476 ± 1.1
20 | VFSDWVSSKPLRSVVPCFCN | -0.496 ± 1.1
21 | VFSEWWFTANAACSAQCYEW | 0.789 ± 0.33
22 | VFSPFQFNFWWSFCVNFALV | 4.367 ± 0.035
23 | VFSSNEYFPLYSVFIVSEIL | 2.47 ± 0.074
24 | VFTKLTLSSI | 0.227 ± 1.1
25 | VFTTLDWTSKYALIR | 0.56 ± 0.5

Row | Substance | amyloid nucleation score
26 | VFVARITSRTIIVLNESGFE | 5.21 ± 0.089
27 | VFVERMPVGFHPFRIKIILT | 1.01 ± 0.59
28 | VFWSGAILLLAKCIGGMSIL | -0.47 ± 0.32
29 | VFYRASRSFKQSVRAPVGLR | -0.675 ± 0.55
30 | VGALCGYAVVSWYSWSLSVL | 1.83 ± 0.11
31 | VGCIYRTQDCCSRDMVCIRV | 0.071 ± 0.79
32 | VGCPEMGLVSLGSLLRLGSA | 0.968 ± 0.39
33 | VGELVMLFSKYSSVNVRGFA | 3.04 ± 0.075
34 | VGFVCDLTGMNMGRFFKCGN | inactive
35 | VGGIWE | -0.427 ± 0.45
36 | VGGYDNLSILISTLQSSIFS | -0.779 ± 0.37
37 | VGIDYV | inactive
38 | VGIGVAERCDSRWLL | 0.886 ± 0.3
39 | VGILSRWLRGRFTVTRWLWC | -0.945 ± 1.1
40 | VGIRRYVRFKVLHNRVNVHE | inactive
41 | VGLACSLS | -1.07 ± 0.78
42 | VGSDWKSVNIFAVDEPGSTY | -1.43 ± 0.55
43 | VGSVK | -0.394 ± 1.1
44 | VGVIAMPLFLCMGQDSLLFV | 4.6 ± 0.061
45 | VHARYMIFWKWTILLHS | inactive
46 | VHFCLKH | 0.241 ± 0.22
47 | VHNCCTVVSLRREDESVYTN | -0.146 ± 0.38
48 | VHNVLKRVYSYGFFNKEHIY | inactive
49 | VIAKDLMHMLPLYM | 0.37 ± 0.25
50 | VICCEVLPSAPLSLWMNLKV | -0.469 ± 1.1

Row | Substance | amyloid nucleation score
51 | VIEIWSN | -0.531 ± 1.1
52 | VIFVVNIFHLYWLRVC | 0.748 ± 0.58
53 | VIIRSFR | -0.629 ± 0.34
54 | VIKFDQISCNSFPNSLL | -0.479 ± 0.55
55 | VISASSVAP | 0.557 ± 0.31
56 | VISSMFNLIKYGSVWSLRGL | -0.706 ± 1
57 | VITVTPGGHVPWVLASNGNI | -1.53 ± 0.78
58 | VIVKAVVDIIGSN | 0.147 ± 0.76
59 | VIYFHHVTYSIYPLL | 0.561 ± 0.62
60 | VIYIWVSVPITPWESIIRGI | inactive
61 | VKEGSLCFYMRRRTGQL | -0.627 ± 0.76
62 | VKHVIAHTRG | 1.52 ± 0.38
63 | VKLVCSDFKMACTSSSMSVD | 0.861 ± 0.24
64 | VKRYDS | inactive
65 | VKVRFFSHVNSMMSLKSIVV | inactive
66 | VKWKLGLTWMVVIIDGVLCV | 0.963 ± 0.35
67 | VLDAHLY | inactive
68 | VLDCRFKCCNFTRDLT | 7.67 ± 0.043
69 | VLDHDGVVVWNFFPHMYSDP | 4.63 ± 0.05
70 | VLECFFVA | 0.183 ± 0.5
71 | VLFCL | -0.806 ± 0.48
72 | VLFDF | 0.652 ± 0.56
73 | VLFGLKYFGSAGIQMSTCDK | 3.53 ± 0.066
74 | VLFRELRSTTASRTGDGDMM | 4.61 ± 0.057
75 | VLFSDA | -0.08 ± 1

Row | Substance | amyloid nucleation score
76 | VLLHCRSICGTRLALPLTGR | 1.57 ± 0.4
77 | VLLSKGRNHSPCVHILAIIP | 0.494 ± 0.8
78 | VLNGGRGVIRLYRVFAGKRF | -1.06 ± 0.47
79 | VLPGKVRPFCGSMCNSFFSL | 0.157 ± 1
80 | VLRGPS | 0.302 ± 0.56
81 | VLRIRLQAGEGKRCE | 4.878 ± 0.044
82 | VLRKEFVYSGCWAKRRLG | 0.165 ± 0.17
83 | VLRLRGLRRWI | 0.638 ± 0.23
84 | VLSPQVKRSHTFLGNDLRTD | 4.64 ± 0.072
85 | VLTSFGLW | 5.206 ± 0.037
86 | VLVMVRTFNGNILPFLAPDL | 5.714 ± 0.024
87 | VLWTIKGFPC | 1.63 ± 0.11
88 | VLYPMLNGGFMESLN | inactive
89 | VLYRLKVKAQWSLS | 0.878 ± 0.28
90 | VMAILCTNARQLEDSLRQVE | 0.452 ± 0.43
91 | VMCIG | -0.33 ± 0.41
92 | VMFYRRYYFKSMANLVDTFR | -0.932 ± 0.48
93 | VMGNFRFYRSMLAFDYDEGV | 1.14 ± 0.18
94 | VMLNWDMGDFRA | inactive
95 | VMLRYNSYGNYLLRWHTDDA | -0.843 ± 0.44
96 | VMQVVLGNMLMRRSQVLYNW | -0.62 ± 0.41
97 | VMRHERTNFIYSKWWGFVEE | -0.011 ± 0.65
98 | VMRIVMIDMKSESWSTERVS | 0.611 ± 0.57
99 | VMSNFFVLRNGCWPMGRG | 6.124 ± 0.049
100 | VMVCGTFANKLRLPVSIELT | 0.534 ± 0.28

Row | Substance | amyloid nucleation score
101 | VMWDRRHFMAVSSDLEDKTR | 0.438 ± 0.16
102 | VNGHLNFAS | 0.712 ± 0.56
103 | VNGSIARYGVCFVARCHVIS | 0.246 ± 0.45
104 | VNIFVLLYLYVWNASIVITF | -0.221 ± 1.1
105 | VNLTSFYLITDCTLNGQQWR | 8.654 ± 0.052
106 | VNMIRRTINSGVYRWSFQLQ | 1.14 ± 0.54
107 | VNSLFLVVRYGG | 5.25 ± 0.05
108 | VNSLSGHFFVFFRLLFTTMV | -1.1 ± 0.41
109 | VNSLYCM | -0.447 ± 1.1
110 | VNWGNGVFAGFLWYYVRPCH | -1.03 ± 1.1
111 | VNYLPWLWSMCNRVH | -0.943 ± 0.61
112 | VNYRNLMKESLCILRQTYTL | 0.031 ± 0.65
113 | VPGDDPSIVTVMQMYGFSLI | -0.385 ± 0.64
114 | VPLRA | 0.002 ± 0.55
115 | VPLTPLGENTECLSRARDIT | 0.826 ± 0.45
116 | VPNVCAGYQPSETETYVLVR | 0.185 ± 0.65
117 | VPPPVGVIYGIQ | 0.637 ± 0.32
118 | VQATGADVFWDW | -0.199 ± 0.76
119 | VQCVMSESMDELYSLVLRCP | 0.998 ± 0.28
120 | VQDQNRREAEVSSKGGTCSW | -0.42 ± 0.35
121 | VQDYKSVRYVGNSRIRVGGS | -0.392 ± 0.79
122 | VQFTRSVRFTLQFCARSDKT | 6.91 ± 0.045
123 | VQGSEKYGVVLFEY | 5.83 ± 0.094
124 | VQIKLRQFTNKAFYTESMST | -0.053 ± 0.63
125 | VQSTRIISCVLCLGDWLEDY | 10.19 ± 0.022

Row | Substance | amyloid nucleation score
126 | VRDLPMCNPYIRYTLFCQVS | -0.497 ± 0.45
127 | VRFLVISINAYSVDVPHISI | -1.63 ± 1.1
128 | VRFVINSWLTCVYERNIKLL | -0.058 ± 0.22
129 | VRGSATEFTILVVVVVLGKR | 0.182 ± 0.42
130 | VRGYCGFALQLVRCEWRICS | 7.272 ± 0.06
131 | VRNFCFDYSVWYENGLTWKR | 0.527 ± 0.66
132 | VRPMLGGSNRLHFSMVFDDD | 5.964 ± 0.059
133 | VRSPCVDVYFPYSLVLDMCL | 0.614 ± 0.62
134 | VRSVLVRKGTWARCTRMVAM | 1.05 ± 0.56
135 | VRSWTGPSEVQNCKSEFSGA | 0.731 ± 0.28
136 | VRTNDKYQEVFPSVYYNLGN | -0.944 ± 1.1
137 | VRTTYYNELETFLVLTPAMR | 1.36 ± 0.22
138 | VRVHCLHLVYYYSQCPRYNN | -0.277 ± 1.1
139 | VRYMLRTLEYMSRVGCSISH | 0.101 ± 0.76
140 | VSACSDLNGW | -0.233 ± 0.47
141 | VSARDHLGKRNRHWINC | -0.626 ± 0.55
142 | VSASFEFRFSSGKWACLWRG | 4.31 ± 0.057
143 | VSDLLPVSDGSFTNPIVMLV | 0.323 ± 0.26
144 | VSDNFTYVLVYESGTGFTVS | inactive
145 | VSENDGVRACCLS | 0.474 ± 0.44
146 | VSHFPGSPLTNKRSMLPAQM | 2.01 ± 0.14
147 | VSITHQLTYW | 1.33 ± 0.53
148 | VSMLISTTPAYIIRQFKGLW | 1.09 ± 0.68
149 | VSNGVVMDKCIRKICTVLTM | -0.667 ± 0.45
150 | VSNREMYVNR | 0.086 ± 0.74

Row | Substance | amyloid nucleation score
151 | VSQARVLCFMNFGRFLTLNE | 5.51 ± 0.09
152 | VSRMLSVMSMTTRMFLPYTS | 0.152 ± 0.61
153 | VSRMYKHLSYMVLIYSPWRE | -0.315 ± 1
154 | VSRSVY | 0.166 ± 0.3
155 | VSRVEYCSGCMSANYLL | 7.7 ± 0.08
156 | VSSETSGFMIGYLYVDLNGV | -0.814 ± 0.4
157 | VSSMHFFWF | -0.378 ± 0.54
158 | VSTGAWCYGLWSVLQGWERG | 5.02 ± 0.082
159 | VSTWTYSHRAPRG | 1.52 ± 0.26
160 | VSVIGKFSFHPKRMRG | -0.481 ± 0.39
161 | VSVRGTHVL | -0.28 ± 0.61
162 | VSWLDYHVSPSRCRGTLNPC | 0.463 ± 0.38
163 | VTAAVNCFVNKAQLCTCLFM | 9.097 ± 0.052
164 | VTEIFMLAL | -0.129 ± 1.1
165 | VTFSSIVTISLISYLQRFWR | 5.77 ± 0.04
166 | VTGNTSRLISRPGANPNCMG | -0.03 ± 0.56
167 | VTHNYKFIQLGSEK | 4.12 ± 0.074
168 | VTRFLISYTRIGRMYSVGFV | -0.523 ± 1
169 | VTRKTWFFVLCNQLFTLFAD | 6.975 ± 0.058
170 | VTSLDFKFNVGEY | 0.832 ± 0.67
171 | VTSLG | -0.249 ± 0.25
172 | VTWALCAGGRQFVTFSS | 8.505 ± 0.045
173 | VTWGIIYRLSDG | 3.58 ± 0.09
